Source: paper PMC11032447, “A hydrophobic groove in secretagogin allows for alternate interactions with SNAP-25 and syntaxin-4 in endocrine tissues” (Proceedings of the National Academy of Sciences of the …, 2024)
No end group written: not given here.

B1: mouse secretagogin (natural protein, UniProt Q91WD9 1-276, looked up)
chain: MDNARRKTPARLDAACFWQIWQRFDKEEKGYIRETELDAFFDHLLAKSGTEDTLMEENVQKVKEQLMTSHNVSKEGRILMKELASMFLSEDENFLLFFRLETPLDNSVEFMQIWRKYDADSSGFISAAELCNFLRDLFLHHKKNISEAELEEYTSTMMKIFDKNKDGRLDLNDLARILALQENFLLQFKMDASSTEERKRDFEKIFAHYDVSKTGALEGPEVDGFVKDMMELVQPSISGVDLDKFREILLRHCDVNKDGKIQKSELALCLGLKINP
notes: mouse secretagogin, the three-domain protein (domains A, B, C); construct in Dataset S1; also called mSCGN; SCGN; source: recombinant, produced and purified; E. coli BL21(DE3) named for the pull-down constructs
B3: Habc domain of mouse syntaxin-4 (domain or fragment, UniProt P70452 32-170, looked up)
chain: ARLGSPDDEFFQKVQTIRQTMAKLESKVRELEKQQVTILATPLPEESMKQGLQNLREEIKQLGREVRAQLKAIEPQKEEADENYNSVNTRMKKTQHGVLSQQFVELINKCNSMQSEYREKNVERIRRQLKITNAGMVSD
notes: mouse syntaxin-4, globular Habc domain; limits in Dataset S1; The His6 tag is told for the pull-down baits; a Habc with the N-peptide is m36; also called Habc module of syntaxin-4; syntaxin-4-derived Habc module; source: recombinant, produced and purified; E. coli BL21(DE3) named for the pull-down constructs

Columns and labels:
[1] = target: B3; test: ITC; in the presence of Ca2+; details: both partners purified
[2] = target: T1, C-terminal SNARE domain of mouse SNAP-25 (mouse, UniProt P60879 140-206); test: ITC; in the presence of Ca2+; details: both partners purified
T1 construct: mouse SNAP-25, C-terminal SNARE domain (helix), identical in SNAP25-1 and SNAP25-2; limits in Dataset S1; The pull-down fragments are said to derive from isoform-2; also called SNAP-25c; SNAP-25C; source: recombinant; E. coli BL21(DE3) named for the pull-down constructs
T1 sequence (P60879 140-206): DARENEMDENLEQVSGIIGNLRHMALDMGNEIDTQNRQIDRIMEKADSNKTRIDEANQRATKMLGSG

mouse secretagogin [3] = target: B1; test: ITC; in the presence of Ca2+; details: both partners purified
mouse secretagogin [4] = target: B1; test: ITC; GFP-fusion peptides of the syntaxin-4 Hb helix; the sentence names no method, the values are said to stand in SI Fig. S3E and SI Table S1 (ITC data); details: both partners purified
human secretagogin = target: T2, human secretagogin (human, UniProt O76038 1-276); test: co-expression and co-purification + SEC; GFP-peptide fusion coexpressed with human secretagogin; in the presence of Ca2+; details: partners not purified
T2 construct: human secretagogin; construct in Dataset S1; Construct limits are in Dataset S1; also called recombinant human secretagogin; source: recombinant; coexpressed and copurified with the GFP fusion, or purified
T2 sequence (looked up): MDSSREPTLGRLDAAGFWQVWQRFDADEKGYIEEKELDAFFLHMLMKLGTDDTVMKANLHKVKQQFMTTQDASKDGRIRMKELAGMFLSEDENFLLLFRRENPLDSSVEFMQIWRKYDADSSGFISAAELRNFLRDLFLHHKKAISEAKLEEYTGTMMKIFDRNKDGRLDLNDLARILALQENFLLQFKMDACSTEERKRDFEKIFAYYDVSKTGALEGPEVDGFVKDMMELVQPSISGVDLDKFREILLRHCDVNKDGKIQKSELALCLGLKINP

## B1
[1]
  stoichiometry N: 1
[2]
  stoichiometry N: 1

B2: helix-a of the Habc domain of mouse syntaxin-4 (domain or fragment, UniProt P70452 32-80, looked up)
chain: ARLGSPDDEFFQKVQTIRQTMAKLESKVRELEKQQVTILATPLPEESMK
notes: limits in Dataset S1; Used as bait in the pull-down; source: recombinant; E. coli BL21(DE3) named for the pull-down constructs
Mouse secretagogin [3]
  Kd: ~7000 nM

## B3
Mouse secretagogin [3]
  Kd: ~14000 nM

B4: GFPmSTX4Hb9 (peptide)
chain: ESMKQGLQNLREEIKQLGREVRAQLKAIEPQKE
modifications: also: fused as C-terminal tag to GFP
notes: mouse syntaxin-4, stretch of the Hb helix, C-terminal tag on GFP; source: recombinant GFP fusion; not shown: GFP, N-terminal, kept
Mouse secretagogin [4]
  Kd: 541 nM

B5: helix-b of the Habc domain of mouse syntaxin-4 (domain or fragment, UniProt P70452 72-109, looked up)
chain: TPLPEESMKQGLQNLREEIKQLGREVRAQLKAIEPQKE
notes: limits in Dataset S1; Used as bait in the pull-down; also called Hb; syntaxin-4 Hb; source: recombinant; E. coli BL21(DE3) named for the pull-down constructs
Mouse secretagogin [3]
  Kd: ~209 nM

B6: GFPmSTX4Hb10 (peptide)
chain: GLQNLREEIKQLGREVRAQLKAIEPQKE
modifications: also: fused as C-terminal tag to GFP
notes: mouse syntaxin-4, stretch of the Hb helix, C-terminal tag on GFP; A linker stands between GFP and the peptide; also called GFP-syntaxin-4-peptide; chimeric GFP-syntaxin-4 (STX4)-derived peptide; source: recombinant GFP fusion; complex with secretagogin isolated by preparative SEC; not shown: GFP, N-terminal, kept
Mouse secretagogin [4]
  Kd: 826 nM

B7: mouse SNAP-25 peptide 155-179 (peptide)
chain: GIIGNLRHMALDMGNEIDTQNRQID
notes: mouse SNAP-25, stretch of the C-terminal helix; Tags of the deletion constructs are in Dataset S1; also called mSNAP-25^14−33; SNAP-25^14–33; source: recombinant deletion construct of SNAP-25c
Mouse secretagogin [3]
  Kd: ~46.6 nM

B8: GFPmSTX4Hb7 (peptide)
chain: TPLPEESMKQGLQNLREEIKQLGREVRAQLKAIEPQKE
modifications: also: fused as C-terminal tag to GFP
notes: as for B4
Mouse secretagogin [4]
  Kd: 275 nM

B9: GFP carrying the SNAP-25-derived peptide (AA155-179) at its C-terminus (peptide)
chain: GIIGNLRHMALDMGNEIDTQNRQID
notes: SNAP-25 stretch 155-179 (mouse and human identical), attached to the C-terminus of GFP; GFP serves as crystallization chaperon; also called GFP-SNAP-25c chimera; GFP-linked SNAP-25-peptide; source: coexpressed and copurified with secretagogin; not shown: GFP, N-terminal, kept
Human secretagogin
  binding result: binds
